From publication PMC4118376 (Sensors (Basel, Switzerland), 2014) come the findings set out here.

Numbering of substitutions follows the chain as printed.

This assay concerns the target staphylococcal enterotoxin B (Staphylococcus aureus (strain not …, UniProt P01552)). The assay can be described thus: SPR. As to conditions: both partners purified.

Sequence of staphylococcal enterotoxin B (Staphylococcus aureus (P01552 28-266): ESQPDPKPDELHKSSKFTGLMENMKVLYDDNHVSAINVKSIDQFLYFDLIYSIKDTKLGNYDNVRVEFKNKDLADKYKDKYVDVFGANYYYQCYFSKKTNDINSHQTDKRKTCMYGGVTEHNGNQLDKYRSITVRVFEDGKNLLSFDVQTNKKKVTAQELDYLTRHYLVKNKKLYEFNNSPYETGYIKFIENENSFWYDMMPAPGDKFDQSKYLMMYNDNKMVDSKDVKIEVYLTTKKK

B1: sdAb H9-H11 (VHH)
VHH: DVQLQASGGGLVQPGGSLRLSCAASESAVRIGFMGWHRQAPGNQRERVAQISSTGLPTYADAVKGRFTISRDNTKNTVYLQMNSLNADDTAVYFCNARLYDGTSVWGQGTQVTVSS
notes: source: E. coli, periplasm, purified (IMAC, size exclusion chromatography)
By Kd is commonly meant a measure of binding affinity in units of concentration. Low values mean a tighter complex, high ones a looser complex. As usually defined, the koff is the first-order rate constant of dissociation. The low end stands for slow dissociation, the high end for fast dissociation. A word on the kon: it is the second-order rate constant of association. Consider B1, for which binding was characterised by a dissociation constant (Kd) of 1.56 nM, the koff stood at 0.000755 s⁻¹ and the kon was 485000 M⁻¹ s⁻¹.

B2: sdAb S222-A2 (VHH)
VHH: B1 VHH with Q13E, E26G, R30S, N43K, L56I, T58N, A62T, V78M, V105A
notes: as for B1
B2 returned a Kd of 4.16 nM, a koff of 0.00506 s⁻¹ and a kon of 1.22e+06 M⁻¹ s⁻¹.

B3: sdAb A10 (VHH)
VHH: EVQLQASGGGLVRAGGTLRLTCDATTPTFGSYAMGWFRQAPGKEREFVSAISWSGGDTYADSVKGRFTISRDNTRNRVYLQMNDLEPDDTAIYTCARTTARYYISKDAKDYDYWGQGTQVTVSS
notes: source: E. coli Rosetta (DE3), periplasm, purified (IMAC, size exclusion chromatography)
As to B3, binding was put at a Kd of 0.158 nM, the koff turned out to be 0.000277 s⁻¹ and the kon came to 1.76e+06 M⁻¹ s⁻¹.

B4: sdAb H12 (VHH)
VHH: EVQLQASGGGLVLTGGSLRLSCAASGRNFSNYAMAWFRQAPGKEREFVGTISWYTNTNYANSVKGRFSISRDNAKNTVYLQMSSLKPEDTAVYYCAAAPAMYYNPYTRESEYGYWGQGTQVTVSS
notes: as for B3
B4: the affinity, expressed as Kd, was 0.272 nM; the koff was found to be 0.000607 s⁻¹; the kon worked out at 2.23e+06 M⁻¹ s⁻¹.

B5: sdAb E9 (VHH)
VHH: B4 VHH with L13Q, T14A, N28D, N31D, N61D, M101R, T107K
notes: as for B3
In turn, B5 displayed a Kd of 0.533 nM, a koff of 0.000589 s⁻¹ and a kon of 1.11e+06 M⁻¹ s⁻¹.

B6: sdAb B12 (VHH)
VHH: EVQLQASGGGLVQAGGPLRLTCAVSGPTFGSYALGWFRQAPGKEREFVAAVSWSGGDTYADSVKGRFIISRDNAKNTVYLQMNNLEPEDTAVYSCARMQDRYYISKDAKDYGYWGQGTQVTVSS
notes: as for B3
For the molecule B6, binding was characterised by a dissociation constant (Kd) of 0.232 nM, the koff came out at 0.000321 s⁻¹ and the kon stood at 1.39e+06 M⁻¹ s⁻¹.

B7: sdAb H9 (VHH)
VHH: B6 VHH with P17S, G117E
notes: as for B3
B7 showed a Kd of 0.09 nM, a koff of 0.000318 s⁻¹ and a kon of 3.53e+06 M⁻¹ s⁻¹.

B8: sdAb B1 (VHH)
VHH: B6 VHH with P17S, S62T, V63A, T121I
notes: as for B3
Take B8: binding was characterised by a dissociation constant (Kd) of 0.2 nM, the koff turned out to be 0.00039 s⁻¹ and the kon was 1.95e+06 M⁻¹ s⁻¹.

B9: sdAb D9 (VHH)
VHH: EVQLQASGGGLAQAGDSLRLSCAASIRTFGSYAMGWFRQAPGKEREFVAAISWSGGDTYADSAKGRFTISRDNAKNMMYLQMNSLAPEDTAVYFCAIVEAKYYISKDARDYGYWGQGTQVFVSS
notes: as for B3
As to B9, the dissociation constant Kd worked out at 0.111 nM, the koff is 0.000277 s⁻¹ and the kon is 2.49e+06 M⁻¹ s⁻¹.

B10: sdAb H9-A1 (VHH)
VHH: EVQLQASGGGLVQPGGSLRLSCAASGSAVSIGFMAWYRQAPGKQRELVARISSSGLPDYADTVKGRFTISRDNTRKTVSLQMNSLNPDDTAVYYCNARLYDGSSAWGQGTQVTVSS
notes: as for B3
The molecule B10 showed a Kd of 1.25 nM, a koff of 0.00227 s⁻¹ and a kon of 1.8e+06 M⁻¹ s⁻¹.

B11: sdAb E2 (VHH)
VHH: EVQLQASGGGLVQAGGSLRLTCAASGRTFGSYAMGWFRQAPGKEREFVAAISWSGGDTYADSVKGRFTISRDNAKNTVYLQMNSLAPEDTAVYSCAAVGARYYISKDAKDYGYWGQGTQVTVSS
notes: as for B3
B11: binding was characterised by a dissociation constant (Kd) of 0.273 nM, the koff amounted to 0.00351 s⁻¹ and the kon was 1.28e+07 M⁻¹ s⁻¹.

B12: sdAb F1 (VHH)
VHH: B11 VHH with E1D, G26L, R27H, A60S, A86E, G99E, K106T
notes: as for B3
B12: the Kd came to 0.65 nM, the koff is 0.00042 s⁻¹ and the kon worked out at 646000 M⁻¹ s⁻¹.

B13: sdAb H9-B11 (VHH)
VHH: DVQLQASGGGLVQVGGSLRLSCAASGSTFRIGYMGWYRQAPGKPRELVARISSGGTTDYLDFVKDRFTISRDNAKNTVYLQMSSLKPEDTAVYYCNVVNYRANEYWGQGTQVTVSS
notes: as for B1
In the case of B13, binding was put at a Kd of 3.32 nM, the koff was 0.000512 s⁻¹ and the kon stood at 154000 M⁻¹ s⁻¹.

B14: sdAb H9-D7 (VHH)
VHH: B13 VHH with G35S, Y37H, P44S, F62S, A74T, S83N, K86E, N99D, T113A
notes: as for B3
Take B14: the Kd amounted to 1.1 nM, the koff turned out to be 0.000192 s⁻¹ and the kon is 174000 M⁻¹ s⁻¹.
